Laboratory results: publication PMC11997982

What was measured:
[1] = molecular target: T1, His-GST-RBD WT (Influenza A virus A/Brevig …, UniProt Q99AU3 1-85); assay: EMSA (fEMSA); […], pH 8.0, 1 h at room temperature; […]; settings: protein: recombinant; tags: N-term 10xHis-GST; chain copies: 2; label: 5'-FAM (FITC) on both strands; blunt
[2] = molecular target: T2, Udorn His-GST-ED WT (Influenza A virus A/Udorn/307/1972, UniProt P03495 86-237); assay: as above; settings: protein: recombinant; tags: N-term 10xHis-GST; label: 5'-FAM (FITC) on both strands; blunt
T2 sequence (P03495 86-237): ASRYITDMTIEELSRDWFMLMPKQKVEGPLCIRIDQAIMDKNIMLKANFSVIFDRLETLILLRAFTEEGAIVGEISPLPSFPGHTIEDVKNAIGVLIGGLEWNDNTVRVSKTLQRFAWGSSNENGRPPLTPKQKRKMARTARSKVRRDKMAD

[3] = molecular target: T3, His-GST-ED WT (Influenza A virus A/Brevig …, UniProt Q99AU3 86-230); assay: as above; settings: protein: recombinant; tags: N-term 10xHis-GST; chain copies: 3; label: 5'-FAM (FITC) on both strands; blunt
T3 sequence (Q99AU3 86-230): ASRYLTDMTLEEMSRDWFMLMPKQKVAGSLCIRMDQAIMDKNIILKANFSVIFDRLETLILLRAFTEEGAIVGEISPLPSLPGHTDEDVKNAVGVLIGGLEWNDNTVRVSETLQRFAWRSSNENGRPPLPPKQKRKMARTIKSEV

[4] = molecular target: T4, GST-RBD WT (Influenza A virus A/Brevig …, UniProt Q99AU3 1-85); assay: as above; settings: protein: recombinant; tags: GST; chain copies: 2; label: 5'-FAM (FITC) on both strands; blunt
T4 sequence (Q99AU3 1-85): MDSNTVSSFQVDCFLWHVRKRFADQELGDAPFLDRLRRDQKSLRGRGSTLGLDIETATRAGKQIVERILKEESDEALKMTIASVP

[5] = molecular target: T5, His-RBD WT (Influenza A virus A/Brevig …, UniProt Q99AU3 1-85); assay: as above; settings: protein: recombinant; tags: N-term 10xHis; chain copies: 2; label: 5'-FAM (FITC) on both strands; blunt
T5 sequence (Q99AU3 1-85): as above

[6] = molecular target: T1, His-GST-RBD WT; assay: fluorescence polarization; […], pH 8.0, 1 h at room temperature; […]; settings: protein: recombinant; tags: N-term 10xHis-GST; chain copies: 2; label: 5'-FAM (FITC) on both strands; blunt
[7] = molecular target: T2, Udorn His-GST-ED WT; assay: as above; settings: protein: recombinant; tags: N-term 10xHis-GST; label: 5'-FAM (FITC) on both strands; blunt
[8] = molecular target: T3, His-GST-ED WT; assay: as above; settings: protein: recombinant; tags: N-term 10xHis-GST; chain copies: 3; label: 5'-FAM (FITC) on both strands; blunt
[9] = molecular target: T4, GST-RBD WT; assay: as above; settings: protein: recombinant; tags: GST; chain copies: 2; label: 5'-FAM (FITC) on both strands; blunt
[10] = molecular target: T2, Udorn His-GST-ED WT; assay: fluorescence polarization; protein prep B, A260/280 0.85; […], pH 8.0, 1 h at room temperature; […]; settings: protein: recombinant; tags: N-term 10xHis-GST; label: 5'-FAM (FITC) on both strands; blunt
[11] = molecular target: T5, His-RBD WT; assay: fluorescence polarization; biphasic, first transition; […], pH 8.0, 1 h at room temperature; […]; settings: protein: recombinant; tags: N-term 10xHis; chain copies: 2; label: 5'-FAM (FITC) on both strands; blunt
[12] = molecular target: T5, His-RBD WT; assay: fluorescence polarization; biphasic, second transition; […], pH 8.0, 1 h at room temperature; […]; settings: protein: recombinant; tags: N-term 10xHis; chain copies: 2; label: 5'-FAM (FITC) on both strands; blunt

T1 sequence (Q99AU3 1-85): as above

B1: FAM-dsRNA 16 bp (dsRNA)
RNA 1: CCAUCCUCUACAGGCG
RNA 2: CGCCUGUAGAGGAUGG
B1 showed a Kd [1] of 0.18 ± 0.042 µM, a Kd [2] of 0.17 ± 0.035 µM and a Kd [3] of 3.5 ± 0.8 µM. For the same binder, the Kd [4] was 0.1 ± 0.032 µM, the Kd [5] was 0.055 ± 0.016 µM and the Kd [6] was 0.125 ± 0.009 µM. It also gave a Kd [7] of 0.18 ± 0.021 µM, a Kd [8] of 1.9 ± 0.25 µM and a Kd [9] of 0.076 ± 0.005 µM. It also gave a Kd [10] of 0.196 ± 0.023 µM, a Kd [11] of 0.083 ± 0.011 µM and a Kd [12] of 2.16 ± 0.46 µM.
